Consider 2 molecules from publication doi:10.1101/709196 (bioRxiv, 2019).

The target of one series is SS-EGFP-SUN2^261-731 (UniProt Q8BJS4). The series can be described thus: dual-color fluorescence fluctuation spectroscopy.
Series [1] deals with the molecule itself. The series can be described thus: dual-color fluorescence fluctuation spectroscopy.

By stoichiometry N is commonly meant a count of units in the complex or per binding partner. Take “mCherry-SR-KASH2 (from UniProt Q6ZWQ0 1-6874) (domain or fragment)”: the normalized brightness br (mCherry labels per complex) at Nr:Ng above 4:1 with SS-EGFP-SUN2^261-731 came out at 3. Besides, the stoichiometry N in the series with SS-EGFP-SUN2^261-731 (scale: mCherry-SR-KASH2 per SS-EGFP-SUN2^261-731) is less than 1.

B1: SS-EGFP-SUN2^261-731 (domain or fragment, UniProt Q8BJS4 261-731, looked up)
chain: SWWAAKESRKQPEVWESRDASQHFQAEQRVLSRVHSLERRLEALAADFSSNWQKEAIRLERLELRQGAAGHGGGSSLSHEDALSLLEGLVSRREATLKEDLRRDTVAHIQEELATLRAEHHQDSEDLFKKIVQASQESEARVQQLKTEWKSMTQEAFQESSVKELGRLEAQLASLRQELAALTLKQNSVADEVGLLPQKIQAARADVESQFPDWIRQFLLGDRGARSGLLQRDEMHAQLQELENKILTKMAEMQGKSAREAAASLGQILQKEGIVGVTEEQVHRIVKQALQRYSEDRIGMVDYALESGGASVISTRCSETYETKTALLSLFGIPLWYHSQSPRVILQPDVHPGNCWAFQGPQGFAVVRLSARIRPTAVTLEHVPKALSPNSTISSAPKDFAIFGFDEDLQQEGTLLGTFAYDQDGEPIQTFYFQASKMATYQVVELRILTNWGHPEYTCIYRFRVHGEPAH
Consider B1, for which the “stoichiometry N” value in series [1] is 3.
